Experimental findings from the DeepSol protein solubility set are described below.

The nature of this data set: soluble on expression in E. coli; label from the status in PepcDB or PDB records.
On to “MAHHHHHHMAAVDMQVRAGELPEEPKKDLKKEPSGASKSEEEMQSGIKTYYEMKIEEYESIINKKLQNKKRLEAQRNELNTRVRELCDEIQYLLEAASYVGEIVKPMGKNKVLVKINPEGKYVVDISHSVNIAQCTPNTRVALYNDSYKLHKILPSKVDPLVSLMKVEKVPDSTYEMVGGLDQQVKEVKEVIELPVKHPEIFESLGISQPKGVLLYGPPGTGKTLLARAVAHHTDCTFIRVSGSELVQKYIGEGSRMVRELFVMAREHAPSIIFMDEIDSIGSQRIEGEHGDSEVQRTMMELLNQLDGFESTQNIKVIMCTNRIDILDEALLRPGRIDRKIEFPNPNVEARMEILKIHSRKMNLMRGIDMMKIATDMNNCSGAEVKAVCTEAGMFALRERRVHVTQEDFEMAVAKVMKQDAEKNFTLRKLWK”, for which the “soluble on expression in E. coli” value is “soluble”. The entry for “MGSDKIHHHHHHMKRLRVTLAQLNPTLGDFEGNLKKAIEALRVAEDRGSDLLVFPELFLPGYPPEDLMLRLSFLRENRKYLQKFAQHTRNLGVTVLMGFIDSDEDAYNAAAVVKDGEILGVYRKISLPNYGVFDERRYFKPGEELLVVKIGNIKVGVTICEDIWNPVEPSASLSLGEGVHLIANLSASPYHVGKPVLRKDYLSMKAYDYHVAMAYCNMVGGQDELVFDGGSMVVDASGEVINYGKLFEEEIITVDLDLDENLRVSLVDPRRRYMKTQNYPVKTVEAGNLREKSGHFEPVVNPLPVREEEMFRALITGLRDYVRKNGFEKVVIGLSGGMDSSLVAVIATEALGKENVKGVLMPSMYTSKESIEDAQTLAKNLGIETFIIPITDVFHSYLETLKGVFAGREPDITEENLQARIRGNYLMALSNKFGWLVLTTGNKSEMATGYATLYGDMAGGFAVIKDVYKTDVYRIGRWYNSWRGKEIIPENIFVKPPTAELRPGQTDQEKLPPYEVLDEILRLYIEEGLDPEEIASKGFDRKTVLDVTEMIRKNEYKRKQAAIGVKISTRAFGKDWRMPITNRFKEPL” is “not soluble”; for “MSLSSKLRLQLDAHASIHENVRRLLQFTTSIMEANEEGIRKDIDSEFLHDFRVAIRRSRSILRLLNGVFDPEKTAWMLAGLRELGKRTNDLRDSDVYLLRREEYTSLLPPSLRPALDPFFSDLEADKRLHHRQFCRYLTGREYSGFMTSLKEFIAEGELPDPETAPLAAEPTGDVAAKTIRKALKKVLVHGRRTGSETSDAELHELRIDCKKLRYLLEFFASLFPPKATAQVLRQMKTLQDNLGTFVDLTVQMEFLQSRLETIPADRGGISEAAAIGGLLTTLYRKREKVREHFHEIFSGFDSNETGELFDELLTGLAEGHHHHHH” it is “soluble”. In the case of “MGSDKIHHHHHHMMKILFIYRHPSMGFSIGKVFRPIEEEMKKYAEVDSIYMPTSQYSLNSIWQNIKTTRKAINSKKYDIVHITGTEHYLIPFLLGEKVVVTVHDLGHYFDIHGLKKILFWIMQIFSLKFAKAITCISNFTVQELKKTISIKNNKISVIFNEVDKNFSFKEKEFNKDYPVILHIGTRPHKNLSRTIKALNGIKCKLRIIGEITNKELDLLQKYKTDYSFASNLSDNDLLKEYQNADIINFPSCHEGFGMPIIEGQAVGRIVVTSNIEPMISVANNGAAICDPYNIESIRNTYIRVINDFQYRNDIILKGIDNVKKYSIETVAKQYFELYKTL”, the “soluble on expression in E. coli” value was “not soluble”. As to “MSLINRKDALPITRQCRLLDLSRSGFYYTPRPVSAKDLELMRQIDEIHLAFPFYGSRKIRDELWARKHNVGLDKVRRLMRRMGIEALYVKPRLSLSYPEHVKYPYLLRRLEINRANQVWITDITYIPMAKGFCYLVAIMDEGHHHHHH”, the “soluble on expression in E. coli” value was “not soluble”. The entry for “MTEMAKGSVTHQRLIALLSQEGADFRVVTHEAVGKCEAVSEIRGTALGQGAKALVCKVKGNGVNQHVLAILAADQQADLSQLASHIGGLRASLASPAEVDELTGCVFGAIPPFSFHPKLKLVADPLLFERFDEIAFNAGMLDKSVILKTADYLRIAQPELVNFRRTA” is “soluble”. Turning to “MKRSEKKSMSSALKNGIMERTQPEKVVQMQGTADLSTSKLGTKKYWDELYALELENFRRNPQDTGDCWFSDSDAEQKMIDFLVDNIGAYRISENASVVDLGTGNGHMLFELHQTEFQGKLVGIDYSEESVKLASNIAEATGVDNFISFQQADIFSGDWKPGKYDIVLDKGTLDAISLSGMKINGKLDVVDVYAGVVERILKKDGIFLITSCNFTQDELVKIIETDNLKMWKTIKYPVFQFGGVQGATICSVAFVKQN”, the “soluble on expression in E. coli” value was “soluble”.

For “MGSDKIHHHHHHMPDMSMFGILNTALTGIHAHKLAMNIVGHNIANASTPGYSRQRPVIEANPPIPLTTLTQPSFPLQMGTGARVKTIVRLRDAFLDVQYRQVNNRYNYWDTVLSNLHFIEQLLAEPGEDGIRSLVDNFWNAFKEVMSDPSSTASKAEVVSRAQQMVSQIKDLYGRLEQLREDIDAEIVQRVSEINQMIKRLADLNNKIRTSMMLNSPPNDLLDERDRILDELSNLANINYTEAEDGQITLRIGNQIVLNGSTYRELRALERPYGKGYHELFVGNSQLILSDGKLKALIDLRDSSIVKYMRKLDEFVLFITDSLNLVHRDGFESNGVTTNLNFFKKIEAFSDDPSIFRIKGNRKLEMGPYHTVTGLHSANSQAEIEGRRFNSNDVVLSFDGGSSNVLNISAGTTIGDLVGSWNLLGTSLKVGTHAGGYRLYLEDSTGSLRNRLFLSLGDSLSQMGFDTETKGYITIKESDLSGLSSGVYNINVEYILEDGTRQTETISVDLSSGVNLSNIEASINSSSHLRAQIYADPSTGENMLVIVPDEQLNFDPSAVKVLSDDDFFTESNAFVRNYEVLKYKDTLENIFYGQTGFDPTRPFTITINSTDIEIDPAVDTLETLVEKINEKNTGVLADLTPHHSLVFRASSLYDFDLRMMEIKGPQGFFEAVGFVDPDGDPTTFDWNTSFTLVSKSDDFTTLSERFKVADILTFDRAPYDEPLNIVNQFEVSSSLATNPANLAVDVGYALENSDWNATSIKPSGGANPELLETIQNLYTRKMLSNGKESFYEFFGGVVSELGVEAETASNLKNNTEILRQEIDNAREEVKGVSLDEEMANMIEYQHAFSAAAKVITAVDQMIQTVINMVG”, the “soluble on expression in E. coli” value is recorded as “not soluble”.

Take “MNNLALQSLTESIAIKYFGKAFKHEVYYNKRLRTTGGRYILSSHNIEINPKQYEMFGEKAVIDIIKHELCHYFLHLAGEGYQHRDKAFKSLSAKVGAPRFCTPTESYQDRANYKYRCIYCEQEFIRIKRVNLEKMRCGRCGGILKLLQTRKLEHHHHHH”: the “soluble on expression in E. coli” value is given as “not soluble”.

With “TPNKEDYLKCLYELGTRHNKITNKEIAQLMQVSPPAVTEMMKKLLAEELLIKDKKAGYLLTDLGLKLVSDLYRKHRLIEVFLVHHLGYTTEEIHEEAEVLEHTVSDHFVERLDQLLDYPKACPHGGTIPAKGELLVEKHKLTLEEAKEKGDYILARVHDNFDLLTYLERNGLQVGKTIRFLGYDDFSHLYSLEVDGQEIQLAQPIAQQIYVEKI”, the “soluble on expression in E. coli” value is reported as “soluble”.

“QVQLLESGAVLARPGTSVKISCKASGFNIKDYYMHWVKQRPGQGLEWIGGNDPANGHSMYDPKFQGRVTITADTSTSTVFMELSSLRSEDTAVYYCARDSGYAMDYWGQGTLVTVSSASTKGPSVFPLAPCSRSTSESTAALGCLVKDYFPEPVTVSWNSGALTSGVHTFPAVLQSSGLYSLSSVVTVPSSSLGTKTYTCNVDHKPSNTKVDKRVES”: the “soluble on expression in E. coli” value is “soluble”. The entry for “MSLNEWALETDAEFLVYNALRETGRLLISPDAITKQKARHVMRQVIARYPLGSKHDKLWLAAVEMLHYYAPEVLQQLGIDLDAAKRDLAARILPNRFECQGPAIIRSQDLSDAQAAQACDVLDKKEQDFHQVANTGLAPVADDYNTRVEVVVFANNSSYVNYSSFLFGNTTDNGGQYLEGNPADQNNQARFVAYRYANDADLSILNLEHEYTHYLDARFNQYGSFSDNLAHGHIVWWLEGFAEYMHYKQGYQAAVKLISQGKLSLSDVFATTYSNDTNRIYRWGYLAVRFMLEKHPQDVESLLALSRTGQFDQWAQSVKLLGERYNTEFSAWLDTLQRDNEGHHHHHH” is “not soluble”.

“MGSDKIHHHHHHVTQNSPRQLSLPVYLPDDETFQSYYPASGNDELIQKLQASAQGGLSSSLYIYGPVKSGRTHLMHAACALANDKDRRTLYIPLGIHASISPALFEGLESLELICIDDIDAIAGHPIWEEAIFHLYNRIAEHKDCHLIVSGKASPTEAGFLLPDLVSRMQWGLIYQLQPMADDEKLLALQRRAAMRGLQLSDEVGRFLLTRMARDLRTLFDVLDKLDKASMVHQRKLTIPFIKEMLRL”: the “soluble on expression in E. coli” value is “not soluble”. The entry for “MAKNRFVRDVRLIASTSGDPIDAGQNGELLKSLYYQIAVHCIVLPPLRERKEDILPLAIHFIRQGNERYGLHVEGLGDDVQEAFLAYSWPGNVRELEAVILETMATMEQEQTITLAHLPAPFRAKLAPDETKTDFLFDTEDILPLDKYMEEVEIYYIRKALQHHGFNITKTAKALGLSRQNLQYRIRKYQIDKEWG” is “not soluble”; for “MNGSRSTFLYLLAAAGLALTPAAQADRGNDVVARLNQLYNDTRQDCGGPSKPAFLCSGVLFRATWPSTDYMFYSISPKSQKSGGVSASYLRKDAKYRKLAYGLKSGFIFDTIFGNPKDHQDYAVLCSFPIDAATDDRAQQGCTDSRRTPNSVEKSCQDINVSTAEQWAANYRQNRGDHSRQCSFDVRDERNTAAGPAFYQSIRAMAQIADESFTTQNELRLAKWEENPPKSPSILAAFYTEDAGLEGARLNQIQWYQSVQAFLPIINMRLPQTRQQDAQFAYDGRKQAIYPTSEKNACERYVESATWVERDDPGFRKKIMTLEVVPTDCGRKIQDNQTNNFFNELVVDHYLDSEWKDNPDNRDSNIGSMRRQLVCHFNVARNKPEWNLEPSRPYTSNEDSIAKGCNNT” it is “not soluble”; for “MPGSPRPAPSWVLLLRLLALLRPPGLGEACSCAPAHPQQHICHSALVIRAKISSEKVVPASADPADTEKMLRYEIKQIKMFKGFEKVKDVQYIYTPFDSSLCGVKLEANSQKQYLLTGQVLSDGKVFIHLCNYIEPWEDLSLVQRESLNHHYHLNCGCQITTCYTVPCTISAPNECLWTDWLLERKLYGYQAQHYVCMKHVDGTCSWYRGHLPLRKEFVDIVQP” it is “soluble”. The entry for “SNAMKLTPNYYRDRVCLNVLAGSKDNARAIYQAAEGHVLVGVLSKNYPDVDSAVKDMREYAALIDNALSVGLGAGDPRQSVMVSQISQQVQPQHVNQVFTGVGASRALLGQHDTVVNGLISPTGKVGYVKISTGPLSSQQKDAIVPVTTAIAMLKDMGGSSVKFFPMNGLDSIDEYRFVAEACAATGFWLEPTGGIDLDNFEQIVQIALDAGVTKVIPHIYSSIIDSKTGNTRPEDVKTLLDIVKKIVQ” is “soluble”.
